According to patent US20210206841A1 (RESEARCH INSTITUTE AT NATIONWIDE CHILDREN S HOSPITAL, published 2021):

T1: tip-chimeric peptide IhfA5-mIhfB4NTHI (nontypeable Haemophilus influenzae …)
T1 construct: also called IHF(NTHI) tip chimeric peptide; IHFNTHI tip chimeric peptide
T1 peptide: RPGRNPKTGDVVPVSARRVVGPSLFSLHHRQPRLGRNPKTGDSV

T2: native IHFNTHI (integration host factor of nontypeable Haemophilus influenzae) (nontypeable Haemophilus influenzae …, UniProt P43723 1-96; P43724 1-94)
T2 construct: also called NTHI IHF
T2 sequence 1: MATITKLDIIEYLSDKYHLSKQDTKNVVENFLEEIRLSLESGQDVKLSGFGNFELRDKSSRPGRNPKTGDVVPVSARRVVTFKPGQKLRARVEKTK
T2 sequence 2: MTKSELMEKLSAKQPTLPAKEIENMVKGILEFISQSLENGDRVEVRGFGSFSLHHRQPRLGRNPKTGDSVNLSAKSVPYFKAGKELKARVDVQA

T3: tail-chimeric peptide IhfA3-IhfB2NTHI (nontypeable Haemophilus influenzae …)
T3 construct: also called IHF(NTHI) tail chimeric peptide; IHFNTHI tail chimeric peptide
T3 peptide: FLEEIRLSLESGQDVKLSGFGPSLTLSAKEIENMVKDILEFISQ


What was measured:
[1] = molecular target: T1, tip-chimeric peptide IhfA5-mIhfB4NTHI; assay: direct ELISA #2, peptide coated (curves reaching equilibrium)
[2] = molecular target: T1, tip-chimeric peptide IhfA5-mIhfB4NTHI; assay: direct ELISA #1, peptide coated (curves not reaching equilibrium)
[3] = molecular target: T2, native IHFNTHI (integration host factor …); assay: SPR Biacore 3000, IHFNTHI immobilized, HuMab as analyte
[4] = molecular target: T1, tip-chimeric peptide IhfA5-mIhfB4NTHI; assay: SPR Biacore 3000, peptide immobilized, HuMab as analyte
[5] = molecular target: T1, tip-chimeric peptide IhfA5-mIhfB4NTHI; assay: SPR Biacore 3000, HuMab immobilized, peptide as analyte
[6] = molecular target: T2, native IHFNTHI (integration host factor …); assay: SPR Biacore 3000, HuMab immobilized, IHFNTHI as analyte
[7] = molecular target: T3, tail-chimeric peptide IhfA3-IhfB2NTHI; assay: direct ELISA #2, peptide coated (curves reaching equilibrium)
[8] = molecular target: T2, native IHFNTHI (integration host factor …); assay: SPR Biacore 3000, HuMab immobilized, IHFNTHI as analyte; remark: listed apart in the source
[9] = molecular target: T3, tail-chimeric peptide IhfA3-IhfB2NTHI; assay: SPR Biacore 3000, HuMab immobilized, peptide as analyte
[10] = molecular target: T3, tail-chimeric peptide IhfA3-IhfB2NTHI; assay: direct ELISA #1, peptide coated (curves not reaching equilibrium)
[11] = molecular target: T3, tail-chimeric peptide IhfA3-IhfB2NTHI; assay: SPR Biacore 3000, peptide immobilized, HuMab as analyte

Row | Binder | EC50 [1] | EC50 [2] | Kd [3] | koff [3] | Kd [4] | koff [4] | kon [4] | Kd [5] | koff [5] | EC50 [7] | Kd [8] | koff [8] | kon [8] | Kd [9] | koff [9] | kon [9] | EC50 [10] | Kd [11] | koff [11] | kon [11] | further results
1 | humanized anti-tip monoclonal antibody, heavy chain SEQ ID NO: 1 and light chain SEQ ID NO: 9 (antibody, V domains shown, also called H10210 (1F8.F1 Humanized HC1) + L10212 (1F8.F1 Humanized LC3)) VH: EVKLVESGGGLVQPGGSLRLSCAASGFTFRTYAMSWVRQAPGKGLEWVATIGSDRRHTYYPDSVKGRFTISRDNAKNTLYLQMNSLRAEDTAVYYCVGPYDGYYGEFDYWGQGTLVTVSS VL: DVVMTQSPDSLAVSLGERATINCKSSQSLLDSDGKTFLNWLQQKPGQPPKRLIYLVSKLDSGVPDRFSGSGSGTDFTLTISSLQAEDVAVYYCWQGTHFPYTFGQGTKLEIKR | 0.055 µg/mL | 0.032 µg/mL | 24 nM | 0.16 s⁻¹ | 0.3 nM | 1.3e-05 s⁻¹ | 40000 M⁻¹ s⁻¹ | 152 nM | 0.00038 s⁻¹ |  |  |  |  |  |  |  |  |  |  |  | kon [3]: 6.5e+06 M⁻¹ s⁻¹; kon [5]: 2500 M⁻¹ s⁻¹; Kd [6]: 0.6 nM; koff [6]: 0.00037 s⁻¹; kon [6]: 630000 M⁻¹ s⁻¹
2 | humanized anti-tip monoclonal antibody, heavy chain SEQ ID NO: 3 and light chain SEQ ID NO: 9 (antibody, V domains shown, also called H10212 (1F8.F1 Humanized HC3) + L10212 (1F8.F1 Humanized LC3)) VH: EVKLVQSGAEVKKPGASVKVSCKASGFTFRTYAMSWVRQAPGQRLEWVATIGSDRRHTYYPDKFQGRVTITRDNAKNTLYMELSSLRSEDTAVYYCVGPYDGYYGEFDYWGQGTLVTVSS VL: DVVMTQSPDSLAVSLGERATINCKSSQSLLDSDGKTFLNWLQQKPGQPPKRLIYLVSKLDSGVPDRFSGSGSGTDFTLTISSLQAEDVAVYYCWQGTHFPYTFGQGTKLEIKR | 0.111 µg/mL | 0.035 µg/mL | 3400 nM | 0.016 s⁻¹ | 3 nM | 0.00021 s⁻¹ | 79000 M⁻¹ s⁻¹ | 200 nM | 0.0019 s⁻¹ |  |  |  |  |  |  |  |  |  |  |  | kon [3]: 4600 M⁻¹ s⁻¹; kon [5]: 9500 M⁻¹ s⁻¹; Kd [6]: 1600 nM; koff [6]: 0.0027 s⁻¹; kon [6]: 1700 M⁻¹ s⁻¹
3 | humanized anti-tip monoclonal antibody, heavy chain SEQ ID NO: 2 and light chain SEQ ID NO: 9 (antibody, V domains shown, also called H10211 (1F8.F1 Humanized HC2) + L10212 (1F8.F1 Humanized LC3)) VH: EVQLVESGGGLVQPGGSLRLSCAASGFTFRTYAMSWVRQAPGKGLEWVATIGSDRRHTYYPDSVKGRFTISRDNSKNTLYLQMNSLRAEDTAVYYCVGPYDGYYGEFDYWGQGTLVTVSS VL: DVVMTQSPDSLAVSLGERATINCKSSQSLLDSDGKTFLNWLQQKPGQPPKRLIYLVSKLDSGVPDRFSGSGSGTDFTLTISSLQAEDVAVYYCWQGTHFPYTFGQGTKLEIKR | 0.0453 µg/mL | 0.027 µg/mL | 125 nM | 0.0017 s⁻¹ | 4 nM | 1.2e-05 s⁻¹ | 3700 M⁻¹ s⁻¹ | 23 nM | 7.4e-05 s⁻¹ |  |  |  |  |  |  |  |  |  |  |  | kon [5]: 3500 M⁻¹ s⁻¹; Kd [6]: 62 nM; koff [6]: 0.00045 s⁻¹; kon [6]: 7200 M⁻¹ s⁻¹
4 | humanized anti-tail monoclonal antibody, heavy chain SEQ ID NO: 4 and light chain SEQ ID NO: 10 (antibody, V domains shown, also called HuTailMab; TP-21958) VH: EVQLVESGGGLVKPGGSLRLSCAASGFTFSRYGMSWVRQAPGKGLEWVATISSGGSYTYYTDSVKGRFTISRDNAKNSLYLQMNSLRAEDTAVYYCERHGGDGYWYFDVWGQGTMVTVSS VL: DIQMTQSPSSLSASVGDRVTITCRASQDISNYLNWYQQKPGKAVKLLIYYTSRLHSGVPSRFSGSGSGTDYTLTISSLQPEDFATYFCQQGNPLRTFGGGTKVEIKR |  |  |  |  |  |  |  |  |  | 0.0427 µg/mL | ~5.6 nM | 0.00043 s⁻¹ | 77000 M⁻¹ s⁻¹ | 29.6 nM | 0.00033 s⁻¹ | 11000 M⁻¹ s⁻¹ | 0.01 µg/mL | 4.3 nM | 0.00064 s⁻¹ | 150000 M⁻¹ s⁻¹ | 
5 | humanized anti-tail monoclonal antibody, heavy chain SEQ ID NO: 4 and light chain SEQ ID NO: 12 (antibody, V domains shown, also called H10213 (11E7.C7 Humanized HC1) + L10215 (11E7.C7 Humanized LC3)) VH: EVQLVESGGGLVKPGGSLRLSCAASGFTFSRYGMSWVRQAPGKGLEWVATISSGGSYTYYTDSVKGRFTISRDNAKNSLYLQMNSLRAEDTAVYYCERHGGDGYWYFDVWGQGTMVTVSS VL: DIVMTQSPATLSLSPGERATLSCRASQDISNYLNWYQQKPGQAVRLLIYYTSRLHSGIPARFSGSGSGTDYTLTISSLEPEDFAVYFCQQGNPLRTFGGGTKVEIKR |  |  |  |  |  |  |  |  |  | 0.0404 µg/mL |  |  |  |  |  |  | 0.012 µg/mL | 5.1 nM | 0.00056 s⁻¹ | 110000 M⁻¹ s⁻¹ | 
6 | humanized anti-tail monoclonal antibody, heavy chain SEQ ID NO: 5 and light chain SEQ ID NO: 11 (antibody, V domains shown, also called H10214 (11E7.C7 Humanized HC2) + L10214 (11E7.C7 Humanized LC2)) VH: EVQLVESGGGLVKPGGSLRLSCAASGFTFSRYGMSWVRQAPGKGLEWVSTISSGGSYTYYTDSVKGRFTISRDNAKNSLYLQMNSLRAEDTAVYYCERHGGDGYWYFDVWGQGTMVTVSS VL: DIQMTQSPSSLSASVGDRVTITCRASQDISNYLNWYQQKPGKAVKLLIYYTSRLHSGVPSRFSGSGSGTDYTLTISSLQPEDFATYYCQQGNPLRTFGGGTKVEIKR |  |  |  |  |  |  |  |  |  | 0.0339 µg/mL | ~4.4 nM | 0.00061 s⁻¹ | 140000 M⁻¹ s⁻¹ | 47 nM | 0.00027 s⁻¹ | 5700 M⁻¹ s⁻¹ | 0.014 µg/mL | 6.2 nM | 0.00076 s⁻¹ | 120000 M⁻¹ s⁻¹ | 
7 | humanized anti-tail monoclonal antibody, heavy chain SEQ ID NO: 4 and light chain SEQ ID NO: 11 (antibody, V domains shown, also called H10213 (11E7.C7 Humanized HC1) + L10214 (11E7.C7 Humanized LC2)) VH: EVQLVESGGGLVKPGGSLRLSCAASGFTFSRYGMSWVRQAPGKGLEWVATISSGGSYTYYTDSVKGRFTISRDNAKNSLYLQMNSLRAEDTAVYYCERHGGDGYWYFDVWGQGTMVTVSS VL: DIQMTQSPSSLSASVGDRVTITCRASQDISNYLNWYQQKPGKAVKLLIYYTSRLHSGVPSRFSGSGSGTDYTLTISSLQPEDFATYYCQQGNPLRTFGGGTKVEIKR |  |  |  |  |  |  |  |  |  | 0.0408 µg/mL | ~5.3 nM | 0.00053 s⁻¹ | 100000 M⁻¹ s⁻¹ | 62.2 nM | 0.00027 s⁻¹ | ~4300 M⁻¹ s⁻¹ | 0.011 µg/mL | 4.9 nM | 0.00068 s⁻¹ | 140000 M⁻¹ s⁻¹ | 
8 | humanized anti-tail monoclonal antibody, heavy chain SEQ ID NO: 5 and light chain SEQ ID NO: 10 (antibody, V domains shown, also called H10214 (11E7.C7 Humanized HC2) + L10213 (11E7.C7 Humanized LC1)) VH: EVQLVESGGGLVKPGGSLRLSCAASGFTFSRYGMSWVRQAPGKGLEWVSTISSGGSYTYYTDSVKGRFTISRDNAKNSLYLQMNSLRAEDTAVYYCERHGGDGYWYFDVWGQGTMVTVSS VL: DIQMTQSPSSLSASVGDRVTITCRASQDISNYLNWYQQKPGKAVKLLIYYTSRLHSGVPSRFSGSGSGTDYTLTISSLQPEDFATYFCQQGNPLRTFGGGTKVEIKR |  |  |  |  |  |  |  |  |  | 0.0367 µg/mL | ~3.6 nM | 0.00057 s⁻¹ | 160000 M⁻¹ s⁻¹ | 60 nM | 0.00029 s⁻¹ | 4800 M⁻¹ s⁻¹ | 0.007 µg/mL | 6.1 nM | 0.00082 s⁻¹ | 130000 M⁻¹ s⁻¹ | 
9 | humanized anti-tail monoclonal antibody, heavy chain SEQ ID NO: 6 and light chain SEQ ID NO: 10 (antibody, V domains shown, also called H10215 (11E7.C7 Humanized HC3) + L10213 (11E7.C7 Humanized LC1)) VH: EVQLVESGGGLVQPGRSLRLSCTASGFTFSRYGMSWVRQAPGKGLEWVATISSGGSYTYYTDSVKGRFTISRDNAKNILYLQMNSLKTEDTAVYYCERHGGDGYWYFDVWGQGTMVTVSS VL: DIQMTQSPSSLSASVGDRVTITCRASQDISNYLNWYQQKPGKAVKLLIYYTSRLHSGVPSRFSGSGSGTDYTLTISSLQPEDFATYFCQQGNPLRTFGGGTKVEIKR |  |  |  |  |  |  |  |  |  | 0.0274 µg/mL | 18 nM | 0.00073 s⁻¹ | 25000 M⁻¹ s⁻¹ | 72 nM | 0.0013 s⁻¹ | 18000 M⁻¹ s⁻¹ | 0.013 µg/mL | 2.5 nM | 0.00046 s⁻¹ | 180000 M⁻¹ s⁻¹ | 
